Source: patent US10159707B2, “Treatment of cancers with immunostimulatory HIV Tat derivative polypeptides” (PIN Pharma, Inc., priority 2013, dated 2018)
Entries after “also recorded” stand apart in the source; their conditions may differ.

Legend:
Assay type in all cases: in vivo, mouse
4T1 breast tumors = assay: Kaplan-Meier survival of mice bearing 4T1 breast tumors
Experimental: To determine whether Nani-P2 treatment could extend survival in addition to shrinking primary tumors in mice, treatment protocols using various dosing schedules and routes (SC, IV or IT) of administration of 40 ng Nani-P2 were performed. Cohorts of ten mice per group were followed for length of survival, as assessed by use of the Kaplan-Meier product limit method. As per Columbia University Medical Center Animal Facility regulations, each mouse was euthanized at a mean tumor diameter of approximately 15 mm, or earlier if the mouse became moribund, making one of these two outcomes the defining criteria for fatality.

IFN-γ = assay: ELISA analysis of IFN-γ production by immune spleen cells of 4T1 tumor-bearing mice
Experimental: Splenocyte secretion of IFN-γ was assessed by an OptEIA™ ELISA kit (BD Biosciences). Briefly, spleen cells (1×10^5/well) from 4T1 tumor-bearing mice were cultured with or without 5×10^3/well mitomycin C (50 μg/ml)-treated 4T1 cells (used to provide tumor antigens) in DMEM at a 20:1 E:T (effector:[…]) in 96-well plates. Supernatants were collected after 72 hr and kept frozen at −80° C. until analysis without loss of activity. IFN-γ was measured in cell-free supernatants of duplicate wells by ELISA according to the manufacturer's instructions. Tumor-specific IFN-γ production was calculated by subtracting the background values measured in supernatants of spleen cells cultured with medium alone and optical density (OD) values were converted to pg/ml amounts of IFN-γ using a recombinant IFN-γ standard curve. Stimulation index (SI) was calculated as the ratio of IFN-γ in stimulated versus control cultures.
To determine whether cytotoxic T-lymphocytes play a role in tumor rejection induced by Nani-P2 therapy, an IFN-γ ELISA assay (FIG. 7) was performed to compare spleen cells of 4T1 tumor-bearing mice treated either without (Control) or with Nani-P2 (FIG. 7). Spleens were removed under sterile conditions and prepared as described elsewhere (duPre'S. et al. Exp. Mol. Path. 85:174-188, 2008). Briefly, spleens were homogenized and splenocytes, as a rich source of systemic cytolytic T cells and APCs, were co-cultured with mitomycin C-treated 4T1 stimulator cells to induce recall immune responses. Control wells were cultured with medium alone.

4T1 breast tumor = assay: 4T1 primary breast tumor growth in BALB/c mice
Experimental: BALB/c mice were injected (SC) with 1×10^4 4 T1, 1×10^5 TS/A or 2×10^5 SM1 cells, respectively, in the left mammary pad on day 0. […] The control group received PBS injection. […] Tumor burden (tumor volume) was measured and recorded three times weekly. Animals were sacrificed when tumors reached a volume of 15 mm in diameter and the tumors harvested and weighed.
The therapeutic effect of systemic administration of synthetic, Tat-derived compositions in murine models of breast cancer was investigated. […]

B1: Nani-P2: Tat derivative polypeptide SEQ ID NO:3; TF SIVagmVer, cysteine-rich HIV-1, C-terminal SIVagmVer (protein)
chain: MDPKGEEDQDVSHQDLIKQYRKPRTACNNCYCKKCCFHCYACFLRKGLGITYHAFRTRRKKIASADRIPVPQQSISIRGRDSQTTQESQKKVEEQAKANLRISRKNLGDETRGPVGAGN
modifications: Tat derivative polypeptide
notes: TF SIVagmVer, cysteine-rich HIV-1, C-terminal SIVagmVer
survival, intratumoral administration (4T1 breast tumors; 40 ng IT, three weekly cycles, tumors established fourteen days): slightly inferior to SC administration | survival at day 47 (4T1 breast tumors; 40 ng IV, three weekly cycles, tumors established fourteen days, p<0.005): 60% | treated mice still alive at day 48 (4T1 breast tumors; 40 ng SC, 4 doses over 21 days from tumor implant, p<0.001): 35% | survival at day 47 (4T1 breast tumors; 40 ng SC, three weekly cycles, tumors established fourteen days, p<0.05): 20% | survival versus control mice (4T1 breast tumors; 4T1 model): increased survival compared with control mice | tumor growth inhibition and survival benefits, extension past the last dosing (4T1 breast tumors; established 4T1 tumors, treated intravenously): at least 36 days | survival versus controls at day 42 (4T1 breast tumors; four doses 40 ng SC from day 0): statistically significant better survival over controls | survival benefit versus control, IV (4T1 breast tumors; three weekly doses 40 ng IV, therapy delayed until day 13/14, day 47): very highly statistically significant benefit to survival; also recorded: highly statistically significant | survival benefit versus control, SC (4T1 breast tumors; three weekly doses 40 ng SC into draining lymph nodes, therapy delayed until day 13, day 47): statistically significant | IFN-γ production of spleen cells versus control mice (IFN-γ; 40 ng SC weekly for 4 weeks, spleens day 33, 72 hr culture, all conditions of assay): significantly (p<0.05*) higher | baseline levels of INF-γ secreted by splenocytes versus PBS control mice (IFN-γ; no in vitro restimulation): 8 -fold | stimulation index (IFN-γ; tumor stimulators + IL4 + GM-CSF, versus control): 53 | 4T1 tumor volume difference versus control, 4 ng (4T1 breast tumor; 4 ng per mouse, four times over 21 days, p<0.1 as printed): highly significant | mice in complete remission, disease-free at 50 days (4T1 breast tumor; 40 ng IV weekly over three weeks from day 14): one animal underwent a complete remission; also recorded: One of 10 | mice with regression of tumor at the initial treatment on day 14 (4T1 breast tumor; 40 ng IV, established 4T1 tumors): 7/10 | 4T1 tumor volume difference versus control, 40 ng (4T1 breast tumor; 40 ng per mouse, four times over 21 days, p<0.01): highly significant | primary tumor burden of established 4T1 tumors versus PBS control (4T1 breast tumor; 40 ng weekly for three weeks beginning at day 14 (IV), p<0.01): statistically significant benefit in primary tumor suppression; also recorded: highly significant | 4T1 tumor volume difference versus control starting at day 22 (4T1 breast tumor; 400 ng SC days 0, 7, 14, 21, p<0.01): highly significant | 4T1 tumor burden versus PBS control (4T1 breast tumor; 400 ng partially-purified, SC, days 0, 7, 14, 21 (Nani-P3 also 2 μg), from day 15, p<0.05): significantly reduced tumor burden; also recorded: significant | average decrease of 4T1 tumor burden at maximal effect (4T1 breast tumor; SC therapy begun on day 13, tumors about 5 mm in diameter): 52% | average shrinkage of 4T1 tumor burden (4T1 breast tumor; SC therapy initiated on day 0 after tumor cell injection): 53% | effect of increasing the dose to 400 ng and 2 μg (4T1 breast tumor; SC, compared with 40 ng, data not shown): no further anti-tumor efficacy | difference in primary tumor burden between Nani-P2 and Nani-P1-treated tumors (4T1 breast tumor; day 21 (final dosing), 400 ng SC, p<0.01): 18 mm^3 | dose giving significant 4T1 tumor growth inhibition (4T1 breast tumor; highly-purified, SC): ≤ 0.4 ng | 4T1 breast tumor growth inhibitory effect, dose relation (4T1 breast tumor; highly-purified, SC, 0.4 ng to 40 ng per dose): dose-dependent
